Measurements from PMC9598255.

B1: TMPRSS2 (transmembrane protease serine 2): N286Q (protein)
parent chain: MPPAPPGGESGCEERGAAGHIEHSRYLSLLDAVDNSKMALNSGSPPAIGPYYENHGYQPENPYPAQPTVVPTVYEVHPAQYYPSPVPQYAPRVLTQASNPVVCTQPKSPSGTVCTSKTKKALCITLTLGTFLVGAALAAGLLWKFMGSKCSNSGIECDSSGTCINPSNWCDGVSHCPGGEDENRCVRLYGPNFILQVYSSQRKSWHPVCQDDWNENYGRAACRDMGYKNNFYSSQGIVDDSGSTSFMKLNTSAGNVDIYKKLYHSDACSSKAVVSLRCIACGVNLNSSRQSRIVGGESALPGAWPWQVSLHVQNVHVCGGSIITPEWIVTAAHCVEKPLNNPWHWTAFAGILRQSFMFYGAGYQVEKVISHPNYDSKTKNNDIALMKLQKPLTFNDLVKPVCLPNPGMMLQPEQLCWISGWGATEEKGKTSEVLNAAKVLLIETQRCNSRYVYDNLITPAMICAGFLQGNVDSCQGDSGGPLVTSKNNIWWLIGDTSWGSGCAKAYRPGVYGNVMVFTDWIYRQMRADG
B2: TMPRSS2 (transmembrane protease serine 2): N250Q (protein)
parent chain: MPPAPPGGESGCEERGAAGHIEHSRYLSLLDAVDNSKMALNSGSPPAIGPYYENHGYQPENPYPAQPTVVPTVYEVHPAQYYPSPVPQYAPRVLTQASNPVVCTQPKSPSGTVCTSKTKKALCITLTLGTFLVGAALAAGLLWKFMGSKCSNSGIECDSSGTCINPSNWCDGVSHCPGGEDENRCVRLYGPNFILQVYSSQRKSWHPVCQDDWNENYGRAACRDMGYKNNFYSSQGIVDDSGSTSFMKLNTSAGNVDIYKKLYHSDACSSKAVVSLRCIACGVNLNSSRQSRIVGGESALPGAWPWQVSLHVQNVHVCGGSIITPEWIVTAAHCVEKPLNNPWHWTAFAGILRQSFMFYGAGYQVEKVISHPNYDSKTKNNDIALMKLQKPLTFNDLVKPVCLPNPGMMLQPEQLCWISGWGATEEKGKTSEVLNAAKVLLIETQRCNSRYVYDNLITPAMICAGFLQGNVDSCQGDSGGPLVTSKNNIWWLIGDTSWGSGCAKAYRPGVYGNVMVFTDWIYRQMRADG
B3: TMPRSS2 (transmembrane protease serine 2): N250Q/N286Q (protein)
parent chain: MPPAPPGGESGCEERGAAGHIEHSRYLSLLDAVDNSKMALNSGSPPAIGPYYENHGYQPENPYPAQPTVVPTVYEVHPAQYYPSPVPQYAPRVLTQASNPVVCTQPKSPSGTVCTSKTKKALCITLTLGTFLVGAALAAGLLWKFMGSKCSNSGIECDSSGTCINPSNWCDGVSHCPGGEDENRCVRLYGPNFILQVYSSQRKSWHPVCQDDWNENYGRAACRDMGYKNNFYSSQGIVDDSGSTSFMKLNTSAGNVDIYKKLYHSDACSSKAVVSLRCIACGVNLNSSRQSRIVGGESALPGAWPWQVSLHVQNVHVCGGSIITPEWIVTAAHCVEKPLNNPWHWTAFAGILRQSFMFYGAGYQVEKVISHPNYDSKTKNNDIALMKLQKPLTFNDLVKPVCLPNPGMMLQPEQLCWISGWGATEEKGKTSEVLNAAKVLLIETQRCNSRYVYDNLITPAMICAGFLQGNVDSCQGDSGGPLVTSKNNIWWLIGDTSWGSGCAKAYRPGVYGNVMVFTDWIYRQMRADG

What was measured:
Conditions in all cases: glycan lost; control: wild type
[1] = co-immunostaining with Golgi marker GM130, HEK293
[2] = flow cytometry of cell surface TMPRSS2, HEK293
[3] = co-immunostaining with ER marker KDEL, HEK293

Protein | localisation_or_trafficking [1] | localisation_or_trafficking [2] | localisation_or_trafficking [3]
B1 | no change | no change | no change
B2 | no change | – | changes
B3 | – | – | changes
